The record followed here is paper PMC8442553 (Science (New York, N.Y.), 2019).

Sequences and labels used below:
B2: Rsc8 (natural protein, yeast)
chain: MSDTEKDKDVPMVDSHEATEEPPTTSTNTPSFPHLAQEQAKEESATLGAEVAHKKINYEQEAQKLEEKALRFLAKQTHPVIIPSFASWFDISKIHEIEKRSNPDFFNDSSRFKTPKAYKDTRNFIINTYRLSPYEYLTITAVRRNVAMDVASIVKIHAFLEKWGLINYQIDPRTKPSLIGPSFTGHFQVVLDTPQGLKPFLPENVIKQEVEGGDGAEPQVKKEFPVNLTIKKNVYDSAQDFNALQDESRNSRQIHKVYICHTCGNESINVRYHNLRARDTNLCSRCFQEGHFGANFQSSDFIRLENNGNSVKKNWSDQEMLLLLEGIEMYEDQWEKIADHVGGHKRVEDCIEKFLSLPIEDNYIREVVGSTLNGKGGDSRDGSVSGSKLMECVNDAVQTLLQGDDKLGKVSDKSREISEKYIEESQAIIQELVKLTMEKLESKFTKLCDLETQLEMEKLKYVKESEKMLNDRLSLSKQILDLNKSLEELNVSKKLVLISEQVDSGIQLVEKDQEGDDEDGNTATGHGVKRVGKEGEEVGEGDSIAKLQPQVYKPWSL

Test in all cases: cryo-EM structure
In data set [1] the target is T1, Rsc58 (yeast, UniProt Q07979 1-502).
T1 sequence: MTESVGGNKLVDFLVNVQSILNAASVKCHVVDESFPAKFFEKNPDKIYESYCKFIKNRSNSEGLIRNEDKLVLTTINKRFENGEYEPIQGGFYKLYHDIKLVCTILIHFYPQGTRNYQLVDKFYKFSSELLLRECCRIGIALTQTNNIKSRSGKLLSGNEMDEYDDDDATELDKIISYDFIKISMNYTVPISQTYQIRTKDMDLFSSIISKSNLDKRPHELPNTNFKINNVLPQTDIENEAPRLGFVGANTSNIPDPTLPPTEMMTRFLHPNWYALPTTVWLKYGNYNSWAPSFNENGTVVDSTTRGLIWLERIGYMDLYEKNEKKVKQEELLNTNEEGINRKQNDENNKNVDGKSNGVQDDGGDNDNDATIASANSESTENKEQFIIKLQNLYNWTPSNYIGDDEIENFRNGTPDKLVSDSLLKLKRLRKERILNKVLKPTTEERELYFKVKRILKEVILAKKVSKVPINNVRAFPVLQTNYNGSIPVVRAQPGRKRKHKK

Data set [2] addresses T2, Rsc9 (yeast, UniProt Q03124 1-581).
T2 sequence: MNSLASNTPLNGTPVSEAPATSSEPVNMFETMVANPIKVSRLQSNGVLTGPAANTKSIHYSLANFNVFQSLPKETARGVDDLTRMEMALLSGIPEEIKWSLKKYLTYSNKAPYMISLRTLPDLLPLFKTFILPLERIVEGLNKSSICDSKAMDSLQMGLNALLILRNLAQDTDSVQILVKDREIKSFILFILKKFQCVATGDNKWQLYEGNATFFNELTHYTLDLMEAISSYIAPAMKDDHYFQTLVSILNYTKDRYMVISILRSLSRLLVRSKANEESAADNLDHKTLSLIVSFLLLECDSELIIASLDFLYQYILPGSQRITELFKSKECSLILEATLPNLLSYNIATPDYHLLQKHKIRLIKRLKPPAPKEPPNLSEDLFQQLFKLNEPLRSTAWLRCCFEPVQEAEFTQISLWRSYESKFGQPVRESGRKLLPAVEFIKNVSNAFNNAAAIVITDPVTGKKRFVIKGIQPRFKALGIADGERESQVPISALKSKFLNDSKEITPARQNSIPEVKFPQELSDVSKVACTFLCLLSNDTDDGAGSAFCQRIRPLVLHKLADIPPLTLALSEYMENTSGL

For data set [3], the target named is B2.
Data set [4] concerns the molecule itself.
In data set [5] the target is T3, Sth1 (yeast, UniProt P32597 1-1359).
T3 sequence: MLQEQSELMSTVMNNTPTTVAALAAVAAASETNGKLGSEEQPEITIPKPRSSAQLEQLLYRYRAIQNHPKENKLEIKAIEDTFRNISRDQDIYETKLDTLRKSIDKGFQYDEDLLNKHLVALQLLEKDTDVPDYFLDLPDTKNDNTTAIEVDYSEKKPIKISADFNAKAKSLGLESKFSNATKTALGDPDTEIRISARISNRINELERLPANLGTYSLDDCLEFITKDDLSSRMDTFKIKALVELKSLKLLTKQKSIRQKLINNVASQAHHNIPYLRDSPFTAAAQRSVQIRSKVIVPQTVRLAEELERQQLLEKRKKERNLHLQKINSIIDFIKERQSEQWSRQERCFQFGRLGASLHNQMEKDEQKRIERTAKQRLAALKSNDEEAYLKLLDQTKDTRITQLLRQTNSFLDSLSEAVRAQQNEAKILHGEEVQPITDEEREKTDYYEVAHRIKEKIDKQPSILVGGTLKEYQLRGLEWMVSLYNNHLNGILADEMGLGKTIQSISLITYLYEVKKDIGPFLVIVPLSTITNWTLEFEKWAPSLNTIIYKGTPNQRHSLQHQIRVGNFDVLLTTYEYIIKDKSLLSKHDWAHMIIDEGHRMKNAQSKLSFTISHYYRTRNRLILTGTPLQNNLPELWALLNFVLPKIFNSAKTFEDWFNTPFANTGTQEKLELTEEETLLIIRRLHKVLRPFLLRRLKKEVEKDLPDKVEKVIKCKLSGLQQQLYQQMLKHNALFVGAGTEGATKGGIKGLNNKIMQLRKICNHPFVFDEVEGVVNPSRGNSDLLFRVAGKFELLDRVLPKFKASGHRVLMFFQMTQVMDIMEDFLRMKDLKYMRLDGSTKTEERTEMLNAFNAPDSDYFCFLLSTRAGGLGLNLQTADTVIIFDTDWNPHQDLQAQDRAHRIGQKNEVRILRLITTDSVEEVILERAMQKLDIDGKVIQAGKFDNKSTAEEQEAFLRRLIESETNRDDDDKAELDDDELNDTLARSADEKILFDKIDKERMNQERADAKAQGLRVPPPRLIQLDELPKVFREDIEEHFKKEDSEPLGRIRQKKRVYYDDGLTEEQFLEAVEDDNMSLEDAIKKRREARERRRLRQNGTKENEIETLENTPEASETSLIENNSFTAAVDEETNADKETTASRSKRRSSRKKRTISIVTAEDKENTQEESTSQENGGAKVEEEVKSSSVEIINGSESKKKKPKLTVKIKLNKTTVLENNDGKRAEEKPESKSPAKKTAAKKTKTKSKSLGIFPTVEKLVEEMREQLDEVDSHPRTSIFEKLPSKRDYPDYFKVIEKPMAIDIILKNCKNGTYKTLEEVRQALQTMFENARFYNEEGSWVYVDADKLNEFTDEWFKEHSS

Data set [6] addresses T4, Rsc7 (yeast, UniProt P32832 1-435).
T4 sequence: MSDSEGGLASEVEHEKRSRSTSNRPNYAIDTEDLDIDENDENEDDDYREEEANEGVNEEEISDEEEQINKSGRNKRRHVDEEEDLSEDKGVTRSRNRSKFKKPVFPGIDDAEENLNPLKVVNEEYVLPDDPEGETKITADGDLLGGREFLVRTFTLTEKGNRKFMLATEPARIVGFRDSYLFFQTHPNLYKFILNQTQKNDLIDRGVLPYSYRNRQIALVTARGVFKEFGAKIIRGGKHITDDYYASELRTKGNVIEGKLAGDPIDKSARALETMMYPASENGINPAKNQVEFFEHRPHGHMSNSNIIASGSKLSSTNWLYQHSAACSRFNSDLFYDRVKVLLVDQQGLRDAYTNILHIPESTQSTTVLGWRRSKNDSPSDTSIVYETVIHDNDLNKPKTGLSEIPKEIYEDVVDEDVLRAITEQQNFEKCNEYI

B1: Rsc6 (natural protein, yeast)
chain: MVTQTNPVPVTYPTDAYIPTYLPDDKVSNLADLKKLIEMDSRLDLYLTRRRLDTSINLPTNTKTKDHPPNKEMLRIYVYNTTESSPRSDSGTPADSGKTTWTLRIEGKLLHESANGKHPFSEFLEGVAVDFKRLKPLGMGKKRKRDSSLSLPLNLQQPEYNDQDSTMGDNDNGEDEDSAEAESREEIVDALEWNYDENNVVEFDGIDIKRQGKDNLRCSITIQLRGVDGGKVQYSPNLATLIGMQTGSVNDAVYSIYKYILINNLFVTEQTEAQDGSNDAEDSSNENNNKNGAGDDDGVEGSTPKDKPELGEVKLDSLLQKVLDTNAAHLPLMNVVQTVNKLVSPLPPIILDYTIDLSKDTTYGATTLDVDVSHILHQPQPQPNLQKEEETDAEDTAKLREITKLALQLNSSAQKYQFFHELSLHPRETLTHYLWSSKQNELVLQGDQYFNEDAARTSDIYSNNNNDRSLMGNISLLYSQGRL
Take B1: the binding result in data set [1], in data set [2] and in data set [3] was “binds” in each case.
Take B2: the binding result in data set [4] and in data set [5] was “binds” throughout.

B3: Sfh1 (natural protein, yeast)
chain: MSHQNQLIPQAYISNFHNRLTNEDDGIPIFTMAQQTRQHKRAKVVNYAEYDNDLFDEFNMNGSNFNNADTHYKDNAVSHENTPALTNGVTMDGSEYNVLENMNGADSIISNNKYDAGSNMVVESLSGLNSNNNASNGPSNKAQAQDIGNAVLPDLQDQHHNPFNILRYPKIRDTFINGKVVSPYRLNTDQETKANANSGEAIMIPITLDIEHMGHTIKDQFLWNYNDDSISPEEFASIYCKDLDMTSATLQTQIANIIKEQLKDLENIAATEIMSDLHVIINLTCNLQDRFFEDNFQWNLNDKSLTPERFATSIVQDLGLTREFIPLISQSLHETILKIKKDWVDGHLIQDHVPNDAAFGYLSGIRLDIDELGSNWCPRVEILTKEEIQKREIEKERNLRRLKRETDRLSRRGRRRLDDLETTMRM
For B3, the binding result in data set [6] is reported as “binds”.
